Test results from publication doi:10.1101/2020.04.20.051433.

Molecular target: Cpn60 (chloroplast chaperonin) of pea stroma (P. sativum (endogenous in pea chloroplasts))
Experiment: native gel or EMSA

reduction of the 700-kDa band against full-length Plsp1: 80%
Substance: Plsp1 Δβ1-2 imported into isolated chloroplasts (from UniProt Q8H0W1 68-291) (domain or fragment)
